Data reported in US20170233472A1.

Assays:
[1] = target: human ROR1 expressed on the surface of cancer cells (human) (UniProt Q01973); experiment: FACS on PC-3 cells (ROR1-expressing), isotype control, concentration not given; PE-A, Anti-EK Biotin
[2] = target: human ROR1 expressed on the surface of cancer cells (human) (UniProt Q01973); experiment: FACS on HBL-2 cells (ROR1-expressing), isotype control, concentration not given; PE-A, Anti-EK Biotin

human ROR1 expressed on the surface of cancer cells (human), sequence (Q01973 30-937): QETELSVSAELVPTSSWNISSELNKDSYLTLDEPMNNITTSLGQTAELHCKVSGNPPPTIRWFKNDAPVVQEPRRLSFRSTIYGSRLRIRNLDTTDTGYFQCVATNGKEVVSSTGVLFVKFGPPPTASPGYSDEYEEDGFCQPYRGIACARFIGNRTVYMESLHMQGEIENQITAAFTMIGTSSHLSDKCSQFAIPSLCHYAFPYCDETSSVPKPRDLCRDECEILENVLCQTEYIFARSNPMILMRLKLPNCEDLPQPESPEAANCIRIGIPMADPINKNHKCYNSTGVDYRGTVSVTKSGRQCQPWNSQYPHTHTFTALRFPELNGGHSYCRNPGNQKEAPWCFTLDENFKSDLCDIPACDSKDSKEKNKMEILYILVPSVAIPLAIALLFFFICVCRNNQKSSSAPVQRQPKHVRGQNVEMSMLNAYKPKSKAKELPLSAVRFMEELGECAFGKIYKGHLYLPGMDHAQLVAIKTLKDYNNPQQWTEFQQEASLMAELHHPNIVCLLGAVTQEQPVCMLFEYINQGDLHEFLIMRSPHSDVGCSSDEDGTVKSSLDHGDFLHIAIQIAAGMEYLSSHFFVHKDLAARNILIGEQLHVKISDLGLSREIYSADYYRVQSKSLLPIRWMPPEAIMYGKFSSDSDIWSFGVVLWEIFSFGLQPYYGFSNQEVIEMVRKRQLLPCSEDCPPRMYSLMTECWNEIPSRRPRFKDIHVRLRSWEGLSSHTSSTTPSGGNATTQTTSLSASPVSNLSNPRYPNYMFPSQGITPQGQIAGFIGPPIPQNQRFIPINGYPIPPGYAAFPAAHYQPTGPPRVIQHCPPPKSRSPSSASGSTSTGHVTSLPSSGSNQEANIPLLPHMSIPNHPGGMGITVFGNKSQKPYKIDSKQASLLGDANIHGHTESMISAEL

- Mean: PE-A [1]: 85.2
- Mean: PE-A [2]: 13.8
Substance: Isotype Control
